Literature values, collected in PMC4507496.
Read-outs that look alike come from different tables or passages of the source.

What was measured:
[1] = molecular target: ATG7 (Homo sapiens) (UniProt O95352); conditions: cited from earlier work
[2] = molecular target: ATG7 (Homo sapiens) (UniProt O95352); conditions: cited from earlier work; remark: listed apart in the source

Chain of ATG7 (Homo sapiens) (O95352 2-703): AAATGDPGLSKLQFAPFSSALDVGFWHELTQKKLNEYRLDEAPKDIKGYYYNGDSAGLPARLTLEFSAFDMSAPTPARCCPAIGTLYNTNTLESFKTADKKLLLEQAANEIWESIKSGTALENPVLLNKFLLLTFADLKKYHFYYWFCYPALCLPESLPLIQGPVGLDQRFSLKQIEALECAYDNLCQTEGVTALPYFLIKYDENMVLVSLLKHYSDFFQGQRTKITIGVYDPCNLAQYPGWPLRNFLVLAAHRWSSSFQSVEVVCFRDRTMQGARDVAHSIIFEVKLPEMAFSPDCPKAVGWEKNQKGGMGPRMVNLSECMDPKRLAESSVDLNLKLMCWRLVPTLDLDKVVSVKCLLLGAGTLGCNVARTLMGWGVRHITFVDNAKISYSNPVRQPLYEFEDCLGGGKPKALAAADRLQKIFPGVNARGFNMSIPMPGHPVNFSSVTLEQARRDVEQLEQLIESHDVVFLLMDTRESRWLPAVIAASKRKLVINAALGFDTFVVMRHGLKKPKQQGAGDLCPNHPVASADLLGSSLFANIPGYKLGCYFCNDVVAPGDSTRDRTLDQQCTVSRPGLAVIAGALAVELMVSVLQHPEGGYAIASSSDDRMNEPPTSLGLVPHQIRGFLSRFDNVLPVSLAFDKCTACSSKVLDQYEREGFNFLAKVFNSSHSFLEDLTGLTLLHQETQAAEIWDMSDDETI
Chain of ATG3 flexible region flexible region (Q9NT62 90-190): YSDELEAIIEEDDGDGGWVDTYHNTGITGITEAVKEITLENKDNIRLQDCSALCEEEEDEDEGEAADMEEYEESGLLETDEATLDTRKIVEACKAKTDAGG
Chain of ATG3 (Q9NT62 whole entry): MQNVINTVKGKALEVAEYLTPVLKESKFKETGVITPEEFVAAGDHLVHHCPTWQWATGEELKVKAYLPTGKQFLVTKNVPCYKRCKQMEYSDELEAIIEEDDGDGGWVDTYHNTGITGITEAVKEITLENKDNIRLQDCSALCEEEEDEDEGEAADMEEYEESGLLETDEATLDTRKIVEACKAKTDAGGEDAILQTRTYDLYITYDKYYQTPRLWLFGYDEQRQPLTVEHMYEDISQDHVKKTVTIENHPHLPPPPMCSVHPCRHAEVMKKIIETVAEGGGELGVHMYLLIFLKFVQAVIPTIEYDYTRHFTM

Substance | Kd [1] | Kd [2]
ATG3 (from UniProt Q9NT62) | 2200 nM | –
ATG3 flexible region flexible region (from UniProt Q9NT62) | – | > 70000 nM
